# Experimental data from the nanobody polyreactivity screen of Harvey et al. (2022).
# Experiment: yeast display, Sf9 membrane polyspecificity reagent, FACS + sequencing; frameworks hold sequencing errors
# Procedure, shortened: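 Galactose induction of a Saccharomyces cerevisiae BJ5465 synthetic nanobody display library ran 36–48 hours. The cells were then stained for 1 hour at 4 °C with 10% biotinylated, detergent-solubilized Sf9 membrane reagent, pulled down on streptavidin microbeads and FACS-sorted into low and high (top ~1%) gates on expression and reagent-binding fluorescence. Labels for polyreactivity follow the gate of origin.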
sequence,measurement,value
QVQRVESGGGLVQAGGSLRLSCAASGFTSLIYAMGWYRQAPGKESELVATITWGGGSTYADSVKGRFTISRDNAKNTVYLQMNSLKPEDTAVFYCIADIYDSWDYATVYSDRYDYWGQGTQVTVSS,polyreactivity (PSR sort gate),low polyreactivity
QVQRVESGGGLVQAGGSLRLSCAASGGTFAFNTMGWYRQAPGIERELVADISSGGSTNYADSVKGRFTISRDNAKNTVYLQMNRLKPVDSAVYYGNGGWDILYLQGDLDYWGQGTQVTVSS,polyreactivity (PSR sort gate),low polyreactivity
QVQRVESGGGLVQAGGSLRLSCAASGITFKSYTMGWYRPAPGKERELVAANTASGGTTRYADSVKGRFTISRDNAKKTVYLQMNSLKPEDTAVYYCNALPFRYGKRRGYWGQGTQVTVSS,polyreactivity (PSR sort gate),low polyreactivity
QVQRVESGGGLVQAGGSLRLSCAASGITFYPYTMGWYRQAPGKQRELVAAISSSGGSTNYADSVKGRFTISRDNAKNSDYLQMISLKPDDSAVYYCAKRYAGNASSDGDSWGQGTQVTVSS,polyreactivity (PSR sort gate),low polyreactivity
QVQRVESGGGLVQAGGSLRLSCAASGLTFSYNAMGWYRQAPGKERELVAAITVSGGRTYYADSVKGRFTISRDNAKNTVYLQMNSLKPEDTAVYYCNADYDEGYYGYLRYDYDYWGQGTQVTVSS,polyreactivity (PSR sort gate),high polyreactivity
QVQRVESGGGLVQAGGSLRLSCAASGNNVMGWYRQAPGKERELVAAISWSGTSTYADSVKGRFTISRDNAKNTVYIQMNSLKPEDTAVYYCAAEQQGRKYRASRRYDYWGQGTQVTVSS,polyreactivity (PSR sort gate),low polyreactivity
QVQRVESGGGLVQAGGSLRLSCAASGRIFALYARGWYRQAPGKEREWVAAISWSGGSTFYADSVKGRFTSSRDTAKNTVYLQMTSLKPEEPAVYYCNKDHLVYPSEFYYWGQGTQVTVSS,polyreactivity (PSR sort gate),low polyreactivity
QVQRVESGGGLVQAGGSLRLSCAASGRIFEYYAMGWSRQAPGKERELVAAINTGGNTYYADSVKGRFTISRDNAKNTVYLQMNSLKPEDTAVYYCATYPIWYGGYLSGTDYDYWGQGTQVTVSS,polyreactivity (PSR sort gate),low polyreactivity
QVQRVESGGGLVQAGGSLRLSCAASGRIFGGYAMGWYRQAPGKERELVAGITIGGRTNYADSVKGRFTISRDNAKNTVYLQMNSLKPEDTAVYYCNTDLTGLDAEYDYWGQGTQLTVSS,polyreactivity (PSR sort gate),low polyreactivity
QVQRVESGGGLVQAGGSLRLSCAASGRIFGYNAMGWSRPAPGKERELVASISRDGDRTYYADSVKGRVTISRDNAKNTVYLQMNSLKPEDTAVDYCATRQYRYGYLYDYWAQGTQVTVSS,polyreactivity (PSR sort gate),high polyreactivity
QVQRVESGGGLVQAGGSLRLSCAASGRIFPSNAMGWYRQAPGKERELVAGINTRSGRTYYADSVKGRFTNSRDNAKKTDYLQLNSLKPEDTAVYYCAAARAWPLNYWYVPYDYWGQGTQVTVSS,polyreactivity (PSR sort gate),high polyreactivity
QVQRVESGGGLVQAGGSLRLSCAASGRNFTRYAMGWYRQAPGKERELVASISRRGGSTYYADSVKGRFTISRDNAKNTVYLQMNSLKPEDTAVYYCNALVIARNIEMDYWGQGTQVTVSS,polyreactivity (PSR sort gate),high polyreactivity
QVQRVESGGGLVQAGGSLRLSCAASGRTFAPYAMGWSRQAPGKARELVAGITYGGSRTYYADSVKGRFTISRDNAKNTVYLQMNSLKPEDPAVYYCNARSYPYQIRYVTYGAGYYYWGQGTQVTVSS,polyreactivity (PSR sort gate),high polyreactivity
QVQRVESGGGLVQAGGSLRLSCAASGRTFAYYVMGWYRQAPGKERELVAAISWSAGSTYYADSVKGRFTISRDNAKNTVYLQMNSLKPEDTAVYYCAADYRFRYEYWGQGTQVTVSS,polyreactivity (PSR sort gate),low polyreactivity
QVQRVESGGGLVQAGGSLRLSCAASGRTFDSYAMGWYRPAPGKERELVAVITRGVRTYYADSVKGRFTISRDNAKNTVYLQMNSLKPEDTAVYYCAKERYNANYDTSLYDYWGQGTQVTVSS,polyreactivity (PSR sort gate),low polyreactivity
QVQRVESGGGLVQAGGSLRLSCAASGRTFWTNAMGWYRQAPGTERELVAAISGSGGSTYFADSVKGRFTISRDNAKNTVYLQMNSLKPEDTAVYYCAAYSRFRYDYWGQGTQVTVSS,polyreactivity (PSR sort gate),high polyreactivity
QVQRVESGGGLVQAGGSLRLSCAASGRTSYYNTMGWYRQAPGKEMELVAAITGRGDSTYYADSVKGRFTISRDNAKNTVYLQMNSLKPEDTAVYYCADDELHLLYRVSKFVDYNHWGQGTQVTVSS,polyreactivity (PSR sort gate),low polyreactivity
QVQRVESGGGLVQAGGSLRLSCAASGSIFGPYAMVWYRQAPGKERELVAAITWSVGSTYYADSVKGRFTISRDNAKTTVYLQMNSLKPEDTAVYYCNAGVLGVYTSYNGDDYWGQGTQVTVSS,polyreactivity (PSR sort gate),low polyreactivity
QVQRVESGGGLVQAGGSLRLSCAASGSIFNPYAMGWYRQARGKVRELGAAISKSGTSTSYADSRKGRFTISRDNAKNTVYLQMNSLKPEDTAVYYCAVQVRRRYNYWGQGTQETVSS,polyreactivity (PSR sort gate),high polyreactivity
QVQRVESGGGLVQAGGSLRLSCAASGSIFSIYAMGWNRQAPGKEMEFVAAIDSGTSTTYADSVKGRFTISRDNAKNTVYLQMNSLKPEDTAVYYCAAALYSDVAAVSTYGYYWGQGTQVTVSS,polyreactivity (PSR sort gate),low polyreactivity
QVQRVESGGGLVQAGGSLRLSCAASGSIFTGNAMGWYRQAPGKEREFVAAIRRSGA,polyreactivity (PSR sort gate),low polyreactivity
QVQRVESGGGLVQAGGSLRLSCAASGSIFTSNVRGWYRQAPGKERELDAAITITGTTNYADSVKGRFTISRDNAKNTVYFQMNRLKPEDTAVYYCAKDPVELSPADWRADYDYWGQGSQVTVSS,polyreactivity (PSR sort gate),low polyreactivity
QVQRVESGGGLVQAGGSLRLSCAASGSTFIGYDMRWYRQAPGTERELVAAISYSDGTYYADSVKGRFTISRDNAKNTVYLQMNSLKPADTAVYYCAADSLYYRYDYWGQGPQVTVSS,polyreactivity (PSR sort gate),low polyreactivity
QVQRVESGGGLVQAGGSLRLSCAASGSTFRRYTMGWYRQAPGKERELVAAITYRGSSTYYADSVKGRFTISRDNAKNTVYLQMNSLKPEDTAVYYCAADARYTGYYYWGQGTQVTVSS,polyreactivity (PSR sort gate),high polyreactivity
QVQRVESGGGLVQAGGSLRLSCAASGSTFYAYAMGWYRQSPGKERELVATITWSGGSTFYADSVKGRFTISRDNAKNTVYLQMNSLKPEDTAVYYCAARSRFPTIADGDYWGQGTQVTVSS,polyreactivity (PSR sort gate),low polyreactivity
QVQRVESGGGLVQAGGSLRLSCAASGSTFYDNTMGWYRPAPGKERELVAAITGTGGNTYYADSVKGRFTISRDNAKNTDYLQMNSLKPEDTAVYYWNRVPVYYYRYGYWGQGTQVTVSS,polyreactivity (PSR sort gate),low polyreactivity
QVQRVESGGGLVQAGGSLRLSCAASGSTLVYNDMGWYRPAPGKEREFVAAIRSNDGSTYYADSVKGRFTISRDNAKNTVYLQMNSLKPEDTAVYYCNKDVWDGYDWPEFDYSGQGTQVTVSS,polyreactivity (PSR sort gate),low polyreactivity
QVQRVESGGGLVQAGGSLRLSCAPSAIIIYYYAMGCYRQAPGNEMELVAGISYSGGSTYADSVKGRLTISRDNAKNTVYLQMNSLKPEDTAVYFCAADYDYGGHWYDYWGQGTQVTVSS,polyreactivity (PSR sort gate),low polyreactivity
QVQRVESGGGLVQAGGSLRLSCAPSGRTFGYYAMGWYRQAPGKERELVAAISRGGRTNYADSVKGRFTISRDNAKNTVYLQMNSLQPEDTAVYYCAKSGTIPRYTASYSLLDYWGQGTQVTVSS,polyreactivity (PSR sort gate),low polyreactivity
QVQRVESGGGLVQAGGSLRLSCPASGSTLYGYAMGWYRPSPGKERELVAGITRGGSTSYADSEKGRFTISRDNAKNTVYLQMNSLKPEDTAVYYCAARSYPGSPVRYDYWGQGTQVTVSS,polyreactivity (PSR sort gate),high polyreactivity
QVQRVESGGGLVQAGGSLRLSFAAAGGILYPYAMGWYRQAPGKERELVAAITSSGSTYYADSVKGRFTISRDNAKITVYLQMNSLNPEDHAVYYCAITLPTRNKLRSGREYDYWGQGTQVTVSS,polyreactivity (PSR sort gate),low polyreactivity
QVQRVESGGGLVQAGGSLRLSSAASGPIYGDYAMGWYRQEPGKERELVADITWSGGSTYYADSVKGRFTISRDNAKNTVYLQMNSLKPEDTAVYYCNADVWFYYTFDYWGLGTQVTVSS,polyreactivity (PSR sort gate),low polyreactivity
QVQRVESGGGLVQAGGSLRLSSAASGSIFFDYAMRGYRQAPGNERELVAAISGSGGSRYYADSVKGRFTISRDNAKNTVYLQMNSLIPEDTAVYYCAAGYKYFRIRYDYWGQGTQVTVSS,polyreactivity (PSR sort gate),high polyreactivity
QVQRVESGGGLVQAGVSLRLSCASSGITFDVNALGWYRQAPGKERELVAAITAGGNTYYADSVKGRFTISRDKAKTTVYLQMNSLKPEETAVYYCAAVSTSLYWAGYDYWGQGTQVTVSS,polyreactivity (PSR sort gate),low polyreactivity
QVQRVESGGGLVQARGSLRLSCAASGLIFPPNVMGWYRQAPGKESEFVAAITSSGSTNYADSVKGRFTISRDNAKYTVYIQMNSLKPEDTAVYYCARDQTWSYQPWYYLSYPQYEYWGQGTEVTVSS,polyreactivity (PSR sort gate),low polyreactivity
QVQRVESGGGLVQAVGSLRLSCPASGIISVCNARGWYRQAPGKERELVASINSGGSTNYADSVKGRFTISRDNAKNTVYLQMNSLKPEDTAVYYCARLHDIRSPYSGTPVRDLPDEDDYWGQGTQVTVSS,polyreactivity (PSR sort gate),low polyreactivity
QVQRVESGGRLVPPGGSLRLSCAASGRIFYTNAMGCYRQAPGKERELVARITGAGNTYYADSVKGRFTISRDNAKNTVYLQLNSLKPEDTAVYYCTADLYWRGDYWGQGTQVTVSS,polyreactivity (PSR sort gate),high polyreactivity
QVQRVESRGVLVQAGGTLRLSCAASGISFGRNTMGWYRQAPLKERELVATIRSGTNYADSVKGRFTISRDNAKNTVDLQMNSLKPDDTAVDYCAVRYFGGRRSYYWGQGSQVTVSS,polyreactivity (PSR sort gate),high polyreactivity
QVQRVESVGGLVQAGGSLRLICAASGRIFQVNAIGWYRQAPGKERELVAAITYSGGTTYYADSVKGRFTISRDNAKNTVYLQMNSLKPEDTAVYYCAAEGYGALGDPWQYGYEYWGQGTQVTVSS,polyreactivity (PSR sort gate),low polyreactivity
QVQRVETAGRLVQARGSLRLSCAPSGIIFKRNAIGWYRQAPGKEREFVAAISSSGDTTYYADSVKGRFTISRDNAKNTVYLQMNSLKPEDTAVYYCAKPIRTSRARGMYYWGQGTEVTVSS,polyreactivity (PSR sort gate),high polyreactivity
QVQRVVSGGGLVQAGGSLRLSCAASGSIFQGNAMGWYRQAPGQERELVAAIHRSDGRTYYADSVKGRFTISRDNAKNTVYLQMNSLKPEDTAVYYCKVDVLLVHDYVFYSWMDYWGQGSQVTVSS,polyreactivity (PSR sort gate),high polyreactivity
QVQVEDTGGGLVQEGGSHRLSCAASGRTFYYYTMGRYRQPPVKEREFVAAITISGARTYYADSVKGRFTISRDNAKNTVYLQMNSLKPEDTPVYYCAARRRYRSRVTTVGYNYWGQGTQVTVSS,polyreactivity (PSR sort gate),high polyreactivity
QVQVESGGGLVQAGGSLRLSCAASGSIIDQYVMGWYRQAPGKERELVAAISRGGRTYYADSVKGRFTISRDNAKNTVYLQMNSLKPEDTAVYYCAARSDVRGFDYWGQGTQVTVSS,polyreactivity (PSR sort gate),low polyreactivity
